# Test results published in publication PMC8502904, “Glyceraldehyde-3-phosphate dehydrogenase present in extracellular vesicles from Leishmania major suppresses host TNF-alpha expression”.
# Key:
# [1] = target: T1, LmGAPDH (glyceraldehyde-3-phosphate dehydrogenase) (Leishmania major (strain 5ASKH), UniProt Q4Q6Z5 1-361); test: EMSA; concentration dependent; supershift with anti-LmGAPDH; details: protein: recombinant; tags: His tag (pET15B NdeI/BamHI, Ni-NTA); chain copies: 4; label: 3' biotin; single strand
# [2] = target: T1, LmGAPDH (glyceraldehyde-3-phosphate …); test: competition; about 200-fold excess unlabeled RNA competes with labeled N1; details: protein: recombinant; tags: His tag (pET15B NdeI/BamHI, Ni-NTA); chain copies: 4; label: none; single strand
# [3] = target: T1, LmGAPDH (glyceraldehyde-3-phosphate …); test: EMSA; no complex also at higher LmGAPDH concentrations; details: protein: recombinant; tags: His tag (pET15B NdeI/BamHI, Ni-NTA); chain copies: 4; label: 3' biotin; single strand
binder,measurement,setting,value
GUGAUUAUUUAUUAUUUAUUUAUUAUUUAUUUAUUUAG (ssRNA) [TNF-alpha 3'-UTR ARE38],binding result,[1],binds
"GUGAUUAUUUAUUAUUUAUUUAUUAUUUAUUUAUUUAG (ssRNA) [TNF-alpha 3'-UTR ARE38, unlabeled competitor]",binding result,[2],binds
AGAACAUCUUGGAAAUAGCUCCCAGAAAAGCAAGCAGC (ssRNA) [TNF-alpha 5'-UTR oligonucleotide],binding result,[3],no binding
